The values below are quoted from earlier work in publication PMC5209733, “U24 from Roseolovirus interacts strongly with Nedd4 WW Domains” (Scientific Reports, 2017).

For data set [1], the system named is human Nedd4 family E3 ubiquitin ligases: Nedd4-1, Nedd4-2, AIP4, Smurf1, Smurf2, WWP1, and WWP2. The settings on record: pull-down assays. From the text:
However, precise binding affinities are hard to extract from such results. […] We have focussed our studies on human Nedd4 WW domains (hNedd4 and hNedd4L, Fig. 1b) given their relevance in the CNS, noted above. As controls, we have u ...

In data set [2] the test system is TCR/CD3ε receptors in T-cells. The settings on record: PY motif responsible for down-regulation. The text has this:
(§1) Within the proline rich region of U24 is a PY motif that is conserved in both HHV-6A and HHV-7 (Fig. 1a). […] However, the exact mechanism by which this occurs is unknown.

For data set [3], the system named is transferrin receptor (TfR).
Source text: as §1

The test system of data set [4] is Nedd4-WW1 domain. The note with it: found previously. The procedure:
In order to compare with previously reported results, experiments were carried out on four relevant WW domains: the second and the third WW domain of rat Nedd4 (rNedd4-WW2 and rNedd4-WW3/4, where WW3/4 is a homologue of the fourth WW domain in human), and the pair of third WW domains from human Nedd4 (hNedd4-WW3* and hNedd4L-WW3*). The WW3 domains are indicated with a star because this type of WW domain is missing in rat and mouse Nedd4[36][37]. Nedd4-WW1 domain was not used as it was found previously not to bind U24. The WW domains mentioned above were fused to the C-terminus of GST prote ...

Data set [5] concerns the target Fyn SH3. The settings on record: association with Fyn SH3. The text has this:
One possible way in which U24 may be implicated in MS is through the mimicry of myelin basic protein (MBP) because the two proteins share a seven amino acid stretch that contains a PxxP motif (Fig. 1a). This segment is essential for MBP to participate in Fyn-mediated signalling pathways by a direct but non-canonical association with the Fyn-SH3 domain[11]. Disruption of these signalling pathways has a large impact on oligodendrocyte differentiation and maturation, processes that are perturbed in MS patients. Within this PxxP motif and just before it are two threonine residues (T95 and T98), wh ...

B1: U24: putative tail-anchored membrane protein that is unique to roseoloviruses (protein)
chain: MDPPRTPPPSYSEVLMMDVMCGQVSPHVINDTSFVECIPPPQSRPAWNLWNNRRKTFSFLVLTGLAIAMILFIVFVLYVFHVNRQRR
For B1, the “binding to Nedd4 family E3 ubiquitin ligases” value in data set [1] was “can bind to most of the seven human Nedd4 family E3 ubiquitin ligases”. Moreover, the “recycling of TCR/CD3ε receptors to the cell surface” value in data set [2] is recorded as “blocked from recycling back to the cell surface”. In addition, in data set [3], the “modulation of transferrin receptor” value was “down-modulate the transferrin receptor”. Further, the “binding to Nedd4-WW1” value in data set [4] is reported as “not to bind”.

B2: MBP: myelin basic protein (protein, UniProt P02686 1-304, looked up)
Myelin basic protein: MGNHAGKRELNAEKASTNSETNRGESEKKRNLGELSRTTSEDNEVFGEADANQNNGTSSQDTAVTDSKRTADPKNAWQDAHPADPGSRPHLIRLFSRDAPGREDNTFKDRPSESDELQTIQEDSAATSESLDVMASQKRPSQRHGSKYLATASTMDHARHGFLPRHRDTGILDSIGRFFGGDRGAPKRGSGKDSHHPARTAHYGSLPQKSHGRTQDENPVVHFFKNIVTPRTPPPSQGKGRGLSLSRFSWGAEGQRPGFGYGGRASDYKSAHKGFKGVDAQGTLSKIFKLGGRDSRSGSPMARR
Consider B2, for which the Kd (usually the concentration at which binding is half-saturated) in data set [5] was 4 to 8 µM.
